The values that follow come from PMC5241945, “A new enzyme-linked immunosorbent assay (ELISA) for human free and bound kallikrein 9” (Clinical Proteomics, 2017).

The experiment deals with T1, human recombinant serpinA3 inhibitor (R&D systems) (human, UniProt P01011 24-423).
T1 construct: alpha-1-antichymotrypsin (serpinA3), human, recombinant; also called a1-antichymotrypsin; ACT; source: bought: R&D Systems
T1 sequence (looked up): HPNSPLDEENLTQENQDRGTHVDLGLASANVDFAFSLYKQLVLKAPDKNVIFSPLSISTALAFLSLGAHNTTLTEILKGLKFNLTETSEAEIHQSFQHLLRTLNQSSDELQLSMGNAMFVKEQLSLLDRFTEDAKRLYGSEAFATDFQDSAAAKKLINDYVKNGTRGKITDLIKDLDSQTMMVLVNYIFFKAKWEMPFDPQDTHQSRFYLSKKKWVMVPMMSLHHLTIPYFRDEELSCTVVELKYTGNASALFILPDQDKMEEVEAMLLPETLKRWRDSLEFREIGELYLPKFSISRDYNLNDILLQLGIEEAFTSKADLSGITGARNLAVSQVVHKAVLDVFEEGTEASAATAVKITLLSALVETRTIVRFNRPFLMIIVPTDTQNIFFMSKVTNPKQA
Description: ELISA; mat-KLK9 (0.5 μg) incubated alone or with recombinant serpinA3 at molar ratios KLK9/serpinA3 1/0.2, 1/0.5, 1/1 and 1/2 in 50 mM Tris-HCl pH 8.0, 1 h, 37 °C; the free KLK9 left was then measured by the sandwich ELISA (28ED436 / biotinylated 4ED28.2) as % recovery against the control without inhibitor. The conditions noted are these: both partners purified.

B1: mature form of KLK9 (mat-KLK9) (aa 23–250), recombinant (enzyme, human, UniProt Q9UKQ9 23-250, looked up)
chain: AIGAEECRPNSQPWQAGLFHLTRLFCGATLISDRWLLTAAHCRKPYLWVRLGEHHLWKWEGPEQLFRVTDFFPHPGFNKDLSANDHNDDIMLIRLPRQARLSPAVQPLNLSQTCVSPGMQCLISGWGAVSSPKALFPVTLQCANISILENKLCHWAYPGHISDSMLCAGLWEGGRGSCQGDSGGPLVCNGTLAGVVSGGAEPCSRPRRPAVYTSVCHYLDWIQEIMEN
notes: Human tissue kallikrein 9 (KLK9), UniProt Q9UKQ9 (KLK9_HUMAN); mature form aa 23-250 of the pre-pro-enzyme (1-250), lacking the signal peptide and the pro-segment; Glycosylated: migrates at ~42 kDa, ~25 kDa after PNGase F; also called mature KLK9; kallikrein 9
With B1, the binding result is listed as “binds”.
